Paper PMC4210636 (Chemistry & Biology, 2014)

What was measured:
[1] = target: LRP-1 ectodomain (low-density lipoprotein receptor-related protein 1) (UniProt Q07954 20-4419); assay: ELISA
[2] = target: T1, ADAMTS-5 lacking the C-terminal thrombospondin domain (UniProt Q9UNA0 262-874); assay: steady-state enzyme inhibition kinetics
T1 sequence (looked up): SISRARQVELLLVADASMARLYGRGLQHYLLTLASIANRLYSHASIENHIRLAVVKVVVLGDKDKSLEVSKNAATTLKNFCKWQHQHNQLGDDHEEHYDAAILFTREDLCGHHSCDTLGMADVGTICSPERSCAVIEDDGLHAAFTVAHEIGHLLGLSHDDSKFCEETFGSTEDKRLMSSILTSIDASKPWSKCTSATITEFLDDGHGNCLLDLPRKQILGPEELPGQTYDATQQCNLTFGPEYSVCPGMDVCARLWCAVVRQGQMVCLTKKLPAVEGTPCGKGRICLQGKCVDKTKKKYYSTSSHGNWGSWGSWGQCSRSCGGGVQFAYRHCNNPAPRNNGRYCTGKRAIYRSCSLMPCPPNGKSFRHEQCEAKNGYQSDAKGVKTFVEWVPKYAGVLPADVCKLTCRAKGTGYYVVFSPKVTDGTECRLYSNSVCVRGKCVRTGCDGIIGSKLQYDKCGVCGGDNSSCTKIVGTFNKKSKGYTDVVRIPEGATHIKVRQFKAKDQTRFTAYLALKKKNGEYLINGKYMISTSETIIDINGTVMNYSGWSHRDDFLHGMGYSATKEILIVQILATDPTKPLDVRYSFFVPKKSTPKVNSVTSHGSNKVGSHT

LRP-1 ectodomain (low-density lipoprotein receptor-related protein 1), sequence (Q07954 20-4419): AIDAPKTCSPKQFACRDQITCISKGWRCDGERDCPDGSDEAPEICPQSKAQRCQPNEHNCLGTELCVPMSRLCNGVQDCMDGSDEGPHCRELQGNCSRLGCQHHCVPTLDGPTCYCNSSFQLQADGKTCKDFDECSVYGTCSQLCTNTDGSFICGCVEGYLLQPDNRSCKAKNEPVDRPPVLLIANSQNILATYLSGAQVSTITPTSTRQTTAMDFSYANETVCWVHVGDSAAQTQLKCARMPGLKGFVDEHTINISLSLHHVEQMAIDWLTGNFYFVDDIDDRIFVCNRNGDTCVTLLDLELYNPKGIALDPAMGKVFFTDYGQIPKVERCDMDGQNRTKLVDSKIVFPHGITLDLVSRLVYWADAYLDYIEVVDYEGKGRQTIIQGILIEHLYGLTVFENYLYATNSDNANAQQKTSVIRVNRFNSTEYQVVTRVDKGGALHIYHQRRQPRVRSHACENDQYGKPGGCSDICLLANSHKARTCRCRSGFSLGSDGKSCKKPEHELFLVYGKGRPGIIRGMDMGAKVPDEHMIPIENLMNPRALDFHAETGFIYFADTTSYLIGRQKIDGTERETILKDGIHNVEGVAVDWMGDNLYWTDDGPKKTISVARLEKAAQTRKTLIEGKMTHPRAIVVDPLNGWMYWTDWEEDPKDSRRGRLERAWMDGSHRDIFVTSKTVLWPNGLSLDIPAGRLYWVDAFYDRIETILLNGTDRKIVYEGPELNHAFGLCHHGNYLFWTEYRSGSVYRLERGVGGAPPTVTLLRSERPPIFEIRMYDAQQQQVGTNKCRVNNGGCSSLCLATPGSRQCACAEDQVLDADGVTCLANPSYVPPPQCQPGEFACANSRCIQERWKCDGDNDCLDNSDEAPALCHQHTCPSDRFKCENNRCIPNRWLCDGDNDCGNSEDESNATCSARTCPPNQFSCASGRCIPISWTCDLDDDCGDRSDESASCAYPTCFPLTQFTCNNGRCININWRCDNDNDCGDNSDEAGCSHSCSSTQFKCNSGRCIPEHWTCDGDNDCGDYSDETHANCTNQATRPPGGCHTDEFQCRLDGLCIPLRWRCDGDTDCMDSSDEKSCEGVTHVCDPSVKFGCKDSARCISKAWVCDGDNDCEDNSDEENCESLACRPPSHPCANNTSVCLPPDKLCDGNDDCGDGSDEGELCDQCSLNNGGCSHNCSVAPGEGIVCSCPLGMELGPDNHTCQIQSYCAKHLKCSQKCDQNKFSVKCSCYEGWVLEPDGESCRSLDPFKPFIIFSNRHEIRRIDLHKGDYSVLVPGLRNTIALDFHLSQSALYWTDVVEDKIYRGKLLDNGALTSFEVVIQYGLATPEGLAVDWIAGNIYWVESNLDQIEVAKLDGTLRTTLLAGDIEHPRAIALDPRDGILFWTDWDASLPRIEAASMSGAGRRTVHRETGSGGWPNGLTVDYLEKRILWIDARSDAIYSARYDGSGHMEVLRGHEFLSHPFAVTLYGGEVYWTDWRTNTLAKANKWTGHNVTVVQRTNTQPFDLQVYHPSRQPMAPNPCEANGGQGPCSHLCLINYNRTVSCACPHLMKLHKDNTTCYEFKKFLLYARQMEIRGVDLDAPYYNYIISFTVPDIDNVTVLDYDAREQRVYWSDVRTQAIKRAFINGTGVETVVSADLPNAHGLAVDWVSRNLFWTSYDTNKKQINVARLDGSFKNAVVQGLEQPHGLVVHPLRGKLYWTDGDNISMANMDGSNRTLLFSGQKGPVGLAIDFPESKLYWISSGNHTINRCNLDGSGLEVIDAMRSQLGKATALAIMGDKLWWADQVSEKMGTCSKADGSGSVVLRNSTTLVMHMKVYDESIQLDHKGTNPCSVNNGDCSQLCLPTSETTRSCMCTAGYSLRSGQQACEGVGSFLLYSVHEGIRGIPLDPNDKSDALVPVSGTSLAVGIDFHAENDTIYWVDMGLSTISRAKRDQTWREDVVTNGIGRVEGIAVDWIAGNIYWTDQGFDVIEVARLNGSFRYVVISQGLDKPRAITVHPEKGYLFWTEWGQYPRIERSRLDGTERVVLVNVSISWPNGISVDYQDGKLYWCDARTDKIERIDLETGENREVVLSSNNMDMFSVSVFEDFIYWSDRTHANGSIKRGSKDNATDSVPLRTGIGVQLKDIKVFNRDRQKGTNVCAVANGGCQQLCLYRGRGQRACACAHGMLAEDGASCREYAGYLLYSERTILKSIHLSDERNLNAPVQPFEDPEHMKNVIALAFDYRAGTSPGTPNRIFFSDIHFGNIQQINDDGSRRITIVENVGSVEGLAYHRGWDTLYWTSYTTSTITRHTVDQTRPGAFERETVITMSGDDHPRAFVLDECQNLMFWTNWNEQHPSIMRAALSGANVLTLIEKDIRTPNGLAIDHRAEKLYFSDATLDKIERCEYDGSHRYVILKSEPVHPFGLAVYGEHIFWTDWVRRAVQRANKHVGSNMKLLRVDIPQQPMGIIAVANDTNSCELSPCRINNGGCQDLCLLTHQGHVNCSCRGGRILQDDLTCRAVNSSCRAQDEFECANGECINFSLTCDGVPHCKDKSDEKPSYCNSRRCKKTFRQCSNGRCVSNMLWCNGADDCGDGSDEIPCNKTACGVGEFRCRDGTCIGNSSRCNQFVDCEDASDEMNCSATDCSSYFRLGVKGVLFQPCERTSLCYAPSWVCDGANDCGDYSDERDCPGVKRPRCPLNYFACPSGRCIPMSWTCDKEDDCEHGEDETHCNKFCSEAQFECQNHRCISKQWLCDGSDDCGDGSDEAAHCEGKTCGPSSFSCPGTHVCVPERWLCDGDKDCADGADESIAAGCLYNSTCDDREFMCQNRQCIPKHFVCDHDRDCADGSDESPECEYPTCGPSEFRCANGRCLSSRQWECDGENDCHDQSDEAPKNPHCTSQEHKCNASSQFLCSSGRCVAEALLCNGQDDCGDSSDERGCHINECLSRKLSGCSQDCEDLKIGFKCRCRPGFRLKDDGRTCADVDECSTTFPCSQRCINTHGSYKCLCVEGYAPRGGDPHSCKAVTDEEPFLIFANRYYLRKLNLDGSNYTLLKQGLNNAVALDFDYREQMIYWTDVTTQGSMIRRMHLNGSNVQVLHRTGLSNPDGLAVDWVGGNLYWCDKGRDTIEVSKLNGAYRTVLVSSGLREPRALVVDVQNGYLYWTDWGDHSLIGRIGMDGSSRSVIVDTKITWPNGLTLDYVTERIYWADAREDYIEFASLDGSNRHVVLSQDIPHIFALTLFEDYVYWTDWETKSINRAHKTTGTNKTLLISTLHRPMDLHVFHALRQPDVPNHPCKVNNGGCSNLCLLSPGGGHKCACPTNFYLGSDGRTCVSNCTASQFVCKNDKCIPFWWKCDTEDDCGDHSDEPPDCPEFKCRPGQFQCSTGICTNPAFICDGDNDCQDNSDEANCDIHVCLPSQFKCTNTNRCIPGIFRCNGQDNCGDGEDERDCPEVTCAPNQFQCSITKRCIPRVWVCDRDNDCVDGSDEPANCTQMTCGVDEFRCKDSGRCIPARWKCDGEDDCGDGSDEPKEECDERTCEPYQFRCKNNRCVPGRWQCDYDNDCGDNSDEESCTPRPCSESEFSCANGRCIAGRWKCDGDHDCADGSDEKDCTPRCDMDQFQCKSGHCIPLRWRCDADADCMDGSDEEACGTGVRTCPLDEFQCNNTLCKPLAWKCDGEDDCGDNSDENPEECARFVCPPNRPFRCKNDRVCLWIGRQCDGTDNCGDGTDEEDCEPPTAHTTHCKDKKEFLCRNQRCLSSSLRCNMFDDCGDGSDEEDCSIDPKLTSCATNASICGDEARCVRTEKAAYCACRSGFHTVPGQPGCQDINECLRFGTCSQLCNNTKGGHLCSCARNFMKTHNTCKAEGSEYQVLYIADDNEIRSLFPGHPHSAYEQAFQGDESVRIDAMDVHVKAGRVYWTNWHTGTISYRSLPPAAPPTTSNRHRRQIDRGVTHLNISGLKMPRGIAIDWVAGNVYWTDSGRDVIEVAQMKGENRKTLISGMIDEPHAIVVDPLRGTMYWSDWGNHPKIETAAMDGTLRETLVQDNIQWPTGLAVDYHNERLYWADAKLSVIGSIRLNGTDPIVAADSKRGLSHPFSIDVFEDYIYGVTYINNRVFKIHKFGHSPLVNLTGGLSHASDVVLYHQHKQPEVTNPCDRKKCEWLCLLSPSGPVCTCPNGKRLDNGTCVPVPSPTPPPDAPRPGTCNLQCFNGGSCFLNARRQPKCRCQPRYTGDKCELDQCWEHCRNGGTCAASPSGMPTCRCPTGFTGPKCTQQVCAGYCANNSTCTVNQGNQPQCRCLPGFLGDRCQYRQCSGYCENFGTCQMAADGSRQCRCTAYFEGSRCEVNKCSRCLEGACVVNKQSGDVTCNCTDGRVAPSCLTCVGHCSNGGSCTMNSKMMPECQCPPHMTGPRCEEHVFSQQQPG

B1: C-terminally FLAG-tagged human TIMP-3 (tissue inhibitor of metalloproteinases 3) (natural protein, UniProt P35625 24-211, looked up)
chain: CTCSPSHPQDAFCNSDIVIRAKVVGKKLVKEGPFGTLVYTIKQMKMYRGFTKMPHVQYIHTEASESLCGLKLEVNKYQYLLTGRVYDGKMYTGLCNFVERWDQLTLSQRKGLNYRYHLGCNCKIKSCYYLPCFVTSKNECLWTDMLSNFGYPGYQSKHYACIRQKGGYCSWYRGWAPPDKSIINATDP
[1]
  Kd: 28 ± 6 nM
[2]
  Ki: 1.36 ± 0.02 nM
